For the experiment, the target named is T1, Amylin 3(a) receptor (human calcitonin receptor (CTa) with RAMP-3) (human, UniProt P30988 25-474; O60896 24-148, limits assumed).
T1 sequence (looked up) 1: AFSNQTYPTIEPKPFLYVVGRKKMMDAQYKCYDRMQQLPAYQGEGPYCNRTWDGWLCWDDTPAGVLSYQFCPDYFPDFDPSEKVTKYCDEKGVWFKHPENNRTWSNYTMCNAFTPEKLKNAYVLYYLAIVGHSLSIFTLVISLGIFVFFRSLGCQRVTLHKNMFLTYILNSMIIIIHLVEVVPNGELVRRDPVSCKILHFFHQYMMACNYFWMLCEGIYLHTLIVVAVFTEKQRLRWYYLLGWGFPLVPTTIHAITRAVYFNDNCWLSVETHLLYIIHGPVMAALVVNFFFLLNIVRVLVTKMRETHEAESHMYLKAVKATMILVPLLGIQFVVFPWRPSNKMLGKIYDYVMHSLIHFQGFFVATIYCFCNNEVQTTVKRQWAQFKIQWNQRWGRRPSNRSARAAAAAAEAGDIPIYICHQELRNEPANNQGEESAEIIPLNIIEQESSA
T1 sequence (looked up) 2: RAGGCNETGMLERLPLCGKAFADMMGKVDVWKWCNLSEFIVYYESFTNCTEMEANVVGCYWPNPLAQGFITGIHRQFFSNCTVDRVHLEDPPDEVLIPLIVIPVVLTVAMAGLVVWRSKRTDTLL
The experiment is described as follows: cell-based or functional assay.

*1 amine or outer side, *2 acyl side, *3 side chain or, on linkers, in order; H or OH if unused. Bridges are numbered along the chain shown (N, C = ends). Where no end group is shown, it is not given here. Side-chain parts run from the residue outwards. The star is where a group is joined. X1 = (S)‑4‑Carboxy‑4‑(17-carboxyheptadecanoylamino)butyryl, O=C(O)CCCCCCCCCCCCCCCCC(=O)N[C@@H](CCC(=O)*)C(=O)O; C20 diacid = O=C(O)CCCCCCCCCCCCCCCCCCC(=O)*; γGlu = O=C(O)[C@H](CCC(=O)[*:2])N[*:1]; Trx = NC[C@H]1CC[C@H](C(=O)O)CC1; AEEA = NCCOCCOCC(=O)O

B1: N-alpha-[(S)-4-Carboxy-4-(19-carboxynonadecanoylamino)butyryl]-His-[His1,His17]-pramlintide (peptide)
peptide: HHCNTATCATQRLANFLHHSSNNFGPILPPTNVGSNTY-NH2
modifications: disulfide 3-8; not fully specified (N-terminus); printed as N-alpha-[(S)-4-Carboxy-4-(19-carboxynonadecanoylamino)butyryl]-His-[His1,His17]-pramlintide
For the molecule B1, the “Potency Luciferase” value stood at 0.1 nM.

B2: N-alpha-[(S)-4-Carboxy-4-(17-carboxyheptadecanoylamino)butyryl]-His-[His1,His17]-pramlintide (peptide)
peptide: X1-HHCNTATCATQRLANFLHHSSNNFGPILPPTNVGSNTY-NH2
modifications: disulfide 3-8
SMILES: CC[C@H](C)[C@H](NC(=O)[C@@H]1CCCN1C(=O)CNC(=O)[C@H](Cc1ccccc1)NC(=O)[C@H](CC(N)=O)NC(=O)[C@H](CC(N)=O)NC(=O)[C@H](CO)NC(=O)[C@H](CO)NC(=O)[C@H](Cc1c[nH]cn1)NC(=O)[C@H](Cc1c[nH]cn1)NC(=O)[C@H](CC(C)C)NC(=O)[C@H](Cc1ccccc1)NC(=O)[C@H](CC(N)=O)NC(=O)[C@H](C)NC(=O)[C@H](CC(C)C)NC(=O)[C@H](CCCNC(=N)N)NC(=O)[C@H](CCC(N)=O)NC(=O)[C@@H](NC(=O)[C@H](C)NC(=O)[C@@H]1CSSC[C@H](NC(=O)[C@H](Cc2c[nH]cn2)NC(=O)[C@H](Cc2c[nH]cn2)NC(=O)CC[C@H](NC(=O)CCCCCCCCCCCCCCCCC(=O)O)C(=O)O)C(=O)N[C@@H](CC(N)=O)C(=O)N[C@@H]([C@@H](C)O)C(=O)N[C@@H](C)C(=O)N[C@@H]([C@@H](C)O)C(=O)N1)[C@@H](C)O)C(=O)N[C@@H](CC(C)C)C(=O)N1CCC[C@H]1C(=O)N1CCC[C@H]1C(=O)N[C@H](C(=O)N[C@@H](CC(N)=O)C(=O)N[C@H](C(=O)NCC(=O)N[C@@H](CO)C(=O)N[C@@H](CC(N)=O)C(=O)N[C@H](C(=O)N[C@@H](Cc1ccc(O)cc1)C(N)=O)[C@@H](C)O)C(C)C)[C@@H](C)O
Take B2: the “Potency Luciferase” value was found to be 0.02 nM.

B3: N-alpha-[(S)-4-Carboxy-4-(19-carboxynonadecanoylamino)butyryl]-His-[His17]-pramlintide (peptide)
peptide: HKCNTATCATQRLANFLHHSSNNFGPILPPTNVGSNTY-NH2
modifications: disulfide 3-8; not fully specified (N-terminus); printed as N-alpha-[(S)-4-Carboxy-4-(19-carboxynonadecanoylamino)butyryl]-His-[His17]-pramlintide
For B3, the “Potency Luciferase” value turned out to be 0.1 nM.

Take {C20 diacid-γGlu}-HCNTATCATQRLANFLHHSSNNFGPILPPTNVGSNTY-NH2 (disulfide 2-7) [N-alpha-[(S)-4-Carboxy-4-(19-carboxynonadecanoylamino)butyryl]-[His1,His17]-pramlintide]: the “Potency Luciferase” value was 0.07 nM.

Turning to X1-HCNTATCATQRLANFLHHSSNNFGPILPPTNVGSNTY-NH2 (disulfide 2-7) [N-alpha-[(S)-4-Carboxy-4-(17-carboxyheptadecanoylamino)butyryl]-[His1,His17]-pramlintide], the “Potency Luciferase” value came to 0.08 nM.

{C20 diacid-4‑aminobutyryl}-CNTATCATQRLANFLHHSSNNFGPILPPTNVGSNTY-NH2 (disulfide 1-6) [N-alpha-[4-(19-Carboxynonadecanoylamino)butyryl]-[His17]-pramlintide (2-37)]: the “Potency Luciferase” value was 0.06 nM.

Turning to KCK([AEEA-Glu-Glu-C20 diacid])TATCATQRLANFLHHSSDNFGPILPPTNVGSNTY-NH2 (disulfide 2-7), the “Potency Luciferase” value came to 0.4 nM.

B4: N-alpha-[4-Carboxy-4-({4-[(19-carboxynonadecanoylamino)methyl]transcyclohexanecarbonyl}amino)butyryl]-[His1,His17]-pramlintide (peptide)
peptide: {C20 diacid-Trx-γGlu}-HCNTATCATQRLANFLHHSSNNFGPILPPTNVGSNTY-NH2
modifications: disulfide 2-7
SMILES: CC[C@H](C)[C@H](NC(=O)[C@@H]1CCCN1C(=O)CNC(=O)[C@H](Cc1ccccc1)NC(=O)[C@H](CC(N)=O)NC(=O)[C@H](CC(N)=O)NC(=O)[C@H](CO)NC(=O)[C@H](CO)NC(=O)[C@H](Cc1c[nH]cn1)NC(=O)[C@H](Cc1c[nH]cn1)NC(=O)[C@H](CC(C)C)NC(=O)[C@H](Cc1ccccc1)NC(=O)[C@H](CC(N)=O)NC(=O)[C@H](C)NC(=O)[C@H](CC(C)C)NC(=O)[C@H](CCCNC(=N)N)NC(=O)[C@H](CCC(N)=O)NC(=O)[C@@H](NC(=O)[C@H](C)NC(=O)[C@@H]1CSSC[C@H](NC(=O)[C@H](Cc2c[nH]cn2)NC(=O)CC[C@H](NC(=O)[C@H]2CC[C@H](CNC(=O)CCCCCCCCCCCCCCCCCCC(=O)O)CC2)C(=O)O)C(=O)N[C@@H](CC(N)=O)C(=O)N[C@@H]([C@@H](C)O)C(=O)N[C@@H](C)C(=O)N[C@@H]([C@@H](C)O)C(=O)N1)[C@@H](C)O)C(=O)N[C@@H](CC(C)C)C(=O)N1CCC[C@H]1C(=O)N1CCC[C@H]1C(=O)N[C@H](C(=O)N[C@@H](CC(N)=O)C(=O)N[C@H](C(=O)NCC(=O)N[C@@H](CO)C(=O)N[C@@H](CC(N)=O)C(=O)N[C@H](C(=O)N[C@@H](Cc1ccc(O)cc1)C(N)=O)[C@@H](C)O)C(C)C)[C@@H](C)O
For B4, the “Potency Luciferase” value was 0.1 nM.

B5: N-alpha-[(S)-4-Carboxy-4-(17-carboxyheptadecanoylamino)butyryl]-Arg-[Arg17]-pramlintide (peptide)
peptide: X1-RKCNTATCATQRLANFLRHSSNNFGPILPPTNVGSNTY-NH2
modifications: disulfide 3-8
SMILES: CC[C@H](C)[C@H](NC(=O)[C@@H]1CCCN1C(=O)CNC(=O)[C@H](Cc1ccccc1)NC(=O)[C@H](CC(N)=O)NC(=O)[C@H](CC(N)=O)NC(=O)[C@H](CO)NC(=O)[C@H](CO)NC(=O)[C@H](Cc1c[nH]cn1)NC(=O)[C@H](CCCNC(=N)N)NC(=O)[C@H](CC(C)C)NC(=O)[C@H](Cc1ccccc1)NC(=O)[C@H](CC(N)=O)NC(=O)[C@H](C)NC(=O)[C@H](CC(C)C)NC(=O)[C@H](CCCNC(=N)N)NC(=O)[C@H](CCC(N)=O)NC(=O)[C@@H](NC(=O)[C@H](C)NC(=O)[C@@H]1CSSC[C@H](NC(=O)[C@H](CCCCN)NC(=O)[C@H](CCCNC(=N)N)NC(=O)CC[C@H](NC(=O)CCCCCCCCCCCCCCCCC(=O)O)C(=O)O)C(=O)N[C@@H](CC(N)=O)C(=O)N[C@@H]([C@@H](C)O)C(=O)N[C@@H](C)C(=O)N[C@@H]([C@@H](C)O)C(=O)N1)[C@@H](C)O)C(=O)N[C@@H](CC(C)C)C(=O)N1CCC[C@H]1C(=O)N1CCC[C@H]1C(=O)N[C@H](C(=O)N[C@@H](CC(N)=O)C(=O)N[C@H](C(=O)NCC(=O)N[C@@H](CO)C(=O)N[C@@H](CC(N)=O)C(=O)N[C@H](C(=O)N[C@@H](Cc1ccc(O)cc1)C(N)=O)[C@@H](C)O)C(C)C)[C@@H](C)O
Turning to B5, the “Potency Luciferase” value amounted to 0.05 nM.
